Reference: article PMC8245568, “Xyloglucan processing machinery in Xanthomonas pathogens and its role in the transcriptional activation of virulence factors” (Nature Communications, 2021)

Assays:
[1] = target: the molecule itself; test: SEC-MALS; 25 °C; Superdex 200 HR 10/300 GL; 250 μL of protein at 50 μmol L^-1 injected; 20 mmol L^-1 HEPES pH 7.5, 150 mmol L^-1 NaCl
[2] = target: the molecule itself; test: SAXS; protein samples at 1, 3, 5 and 10 mg mL^-1; D01A-SAXS2 beamline (LNLS); molecular weight by SAXSMoW

Protein	stoichiometry N [1]	stoichiometry N [2]
XacGalD, GH35 β-galactosidase encoded by XAC1772 of Xanthomonas citri pv. citri 306, wild type (enzyme, source: E. coli, purified (two chromatographic steps)) not shown	4	–
XacAfc95, GH95 α-1,2-L-fucosidase encoded by XAC1774 of Xanthomonas citri pv. citri 306 (enzyme, A signal peptide was probably left out of the construct (surmise); also called GH95 α-L-fucosidase; source: E. coli, purified (two chromatographic steps)) not shown	–	2
